Reference: patent US20210198366A1 (NGM BIOPHARMACEUTICALS, published 2021)

T1: human B7-H7 (soluble analyte in SPR) (human, UniProt Q9UM44 23-344, limits assumed)
T1 sequence: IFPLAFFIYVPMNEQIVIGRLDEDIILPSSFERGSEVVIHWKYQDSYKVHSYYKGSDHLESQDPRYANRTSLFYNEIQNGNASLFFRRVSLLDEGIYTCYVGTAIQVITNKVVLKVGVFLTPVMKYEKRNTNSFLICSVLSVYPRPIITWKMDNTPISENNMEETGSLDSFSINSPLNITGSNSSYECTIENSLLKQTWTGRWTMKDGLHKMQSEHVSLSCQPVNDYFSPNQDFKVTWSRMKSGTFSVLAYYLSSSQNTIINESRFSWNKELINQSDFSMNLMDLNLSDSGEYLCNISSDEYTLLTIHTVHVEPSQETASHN

T2: human B7-H7 expressed on the cell surface (human, UniProt Q9UM44 23-414)
T2 construct: also called hB7-H7; HHLA2
T2 sequence: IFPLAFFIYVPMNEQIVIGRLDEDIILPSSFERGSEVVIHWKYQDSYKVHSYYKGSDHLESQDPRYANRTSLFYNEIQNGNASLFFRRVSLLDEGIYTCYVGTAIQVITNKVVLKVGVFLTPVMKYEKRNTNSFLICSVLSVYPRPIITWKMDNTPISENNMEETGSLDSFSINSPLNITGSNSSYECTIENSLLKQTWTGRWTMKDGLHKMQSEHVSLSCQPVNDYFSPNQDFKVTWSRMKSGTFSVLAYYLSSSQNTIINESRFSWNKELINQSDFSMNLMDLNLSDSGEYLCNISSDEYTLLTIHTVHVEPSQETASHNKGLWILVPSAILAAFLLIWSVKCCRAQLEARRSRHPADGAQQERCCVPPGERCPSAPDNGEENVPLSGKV

T3: cynomolgus monkey B7-H7 expressed on HEK-293T cells (cynomolgus monkey)
T3 construct: also called cyno B7-H7; cells expressing cyno B7-H7
T3 chain: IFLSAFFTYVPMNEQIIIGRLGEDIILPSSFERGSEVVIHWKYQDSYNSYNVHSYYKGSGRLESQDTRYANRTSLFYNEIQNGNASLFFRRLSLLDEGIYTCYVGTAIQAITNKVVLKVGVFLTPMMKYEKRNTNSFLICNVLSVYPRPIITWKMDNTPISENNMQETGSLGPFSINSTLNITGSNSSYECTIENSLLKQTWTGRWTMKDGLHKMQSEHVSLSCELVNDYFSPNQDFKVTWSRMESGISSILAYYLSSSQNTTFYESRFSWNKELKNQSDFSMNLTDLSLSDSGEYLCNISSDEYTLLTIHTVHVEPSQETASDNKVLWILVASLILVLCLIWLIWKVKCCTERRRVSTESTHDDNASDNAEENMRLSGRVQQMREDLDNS

T4: soluble human B7-H7-Fc fusion protein (extracellular region of human B7-H7, aa 23-344, and a human Fc … (human, UniProt Q9UM44 23-344))
T4 construct: also called hB7-H7-Fc; soluble B7-H7
T4 sequence: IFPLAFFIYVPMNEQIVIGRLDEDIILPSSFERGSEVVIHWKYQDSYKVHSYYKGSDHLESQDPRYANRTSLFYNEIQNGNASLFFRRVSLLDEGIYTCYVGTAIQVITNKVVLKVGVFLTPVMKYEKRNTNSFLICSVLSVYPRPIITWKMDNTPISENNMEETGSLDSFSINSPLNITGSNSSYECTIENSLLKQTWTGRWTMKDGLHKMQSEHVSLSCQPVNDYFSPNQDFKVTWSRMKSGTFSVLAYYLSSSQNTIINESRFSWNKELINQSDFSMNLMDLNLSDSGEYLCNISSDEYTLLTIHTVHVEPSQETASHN


Experiments:
[1] = target: T1, human B7-H7 (soluble analyte in SPR); test: SPR (Biacore), antibody captured by anti-Fc on CM5 chip, B7-H7 injected, 37 C
Description: (§1) The binding affinities of exemplary anti-B7-H7 antibodies to human B7-H7 and cyno B7-H7 were measured using SPR technology (Biacore system, GE Healthcare Life Sciences). Briefly, anti-Fc antibody (Sigma-Aldrich) was immobilized on all four flow cells of a CM5 chip using amine coupling reagents (GE Healthcare LifeSciences). Exemplary antibodies were captured on flow cells 2, 3, and 4 using flow cell 1 as a reference. Human B7-H7 or cyno B7-H7 (samples ranging from 0.62-40 nM) were injected at a flow rate of 50 μL/min at 37° C. Kinetic data were collected over time and fit using the simultaneous global fit equation to yield affinity constants (KD values) for each antibody.

[2] = target: T2, human B7-H7 expressed on the cell …; test: FACS on HEK-293T cells expressing human B7-H7
[3] = target: T3, cynomolgus monkey B7-H7 expressed on …; test: FACS on HEK-293T cells expressing cyno B7-H7
[4] = target: T4, soluble human B7-H7-Fc fusion protein …; test: FACS competition: antibody titrated against soluble hB7-H7-Fc binding to HEK-293 cells expressing human CD28H
Description: (§2) Exemplary anti-B7-H7 antibodies identified by ELISA and FACS were tested for their ability to block binding of soluble B7-H7 to receptors KIR3DL3 or CD28H in a FACS assay. HEK-293 cells were transiently transfected with a construct encoding (i) a membrane-bound KIR3DL3 protein or (ii) a membrane-bound CD28H protein. After 48 hours, transfected cells were suspended in ice cold PBS containing 1% FBS and 0.1% sodium azide and incubated on ice in the presence of […]/ml of soluble human B7-H7-Fc protein and antibodies 2D7, 1D3, 28F3, 16D5, 2F10, 5F7, 5B10, 5C9, or 3H6 (serially diluted from […] to 4.6 ng/ml). A second incubation with an anti-human Fc secondary antibody was performed to detect cells bound by the soluble B7-H7-Fc. The cells were analyzed on a BD FACSCalibur instrument (BD Biosciences) and the data was processed using FlowJo software. Calculated IC50s are shown Table 12.

[5] = target: T4, soluble human B7-H7-Fc fusion protein …; test: FACS competition: antibody titrated against soluble hB7-H7-Fc binding to HEK-293 cells expressing human KIR3DL3
Description: as §2

[6] = target: T2, human B7-H7 expressed on the cell …; test: cell-based or functional assay
[7] = target: T1, human B7-H7 (soluble analyte in SPR); test: SPR (Biacore)
Description: as §1
The binding affinity of Hz2D7 to human B7-H7 and cyno B7-H7 was determined using SPR technology (Biacore system) as described herein and compared with the binding affinity of the parental antibody and with a chimeric 2D7 antibody comprising the murine heavy chain and light chain variable regions of 2D7 and a human Fc region.

Binder	Kd [1]	MFI [2]	MFI [3]	IC50 [4]	IC50 [5]	Kd [7]	koff [7]	Induction of NK-92 cytotoxicity EC50 [6]	Induction of NK-92 cytotoxicity Relative efficacy [6]
anti-B7-H7 antibody 2F10 (antibody, V domains shown, Mouse hybridoma antibody) VH: EIQLQQTGPELVKPGASLRISCKASGYSFTDYIIVWVKQNQGKNLDWIEKINPYYGTTTYNLRFEDKATLTVNKSSTTAYMQLNSLTSEDSAVYYCARWDYVSTLFAMDYWGQGTSITVSS VL: DIVMTQSHKVMSTSVGDRVSIICKASQDVGTAVAWYQQKPGQSPKLLIYWASTRHTGVPDRFTGSGSGTDFILTITNVQSENLANYFCQQYKRYYTFGGGTKLEIK	0.3 nM	101 MFI	134 MFI	3 nM	2.5 nM	–	–	0.9 nM	146%
anti-B7-H7 antibody 3H6 (antibody, V domains shown, Mouse hybridoma antibody) VH: EVQLQQSGPELVKPGASVKISCKTSGYTFTEYTMHWVKQSHGKSLEWIGGINPNNGGAPYNQKFKGKATLTVDKSSSTAYMELRSLTSEDSAVYYCARGGYYFDYWGQGTTLTVSS VL: DIVMTQSHKFMSTSVGDRVSITCKASQDVSTAVAWYQQKSGQSPKLLIYWASTRHTGVPDRFTGSGSGTDYTLTISSVQAEDLALYYCQQHYDTPFTFGGGTKLEIK	0.8 nM	41 MFI	568 MFI	2.5 nM	2.7 nM	–	–	0.8 nM	105%
chimeric 2D7 antibody comprising the murine heavy chain and light chain variable regions of 2D7 and a human Fc region (antibody, V domains shown) VH: EVQLQQSGPELVKPGASVKISCKTSGYTFTEYTMHWVKQSHGKSLEWIGGINPNNYGAPYNQKFKGKATLTVDKSSNTAYMELRSLTSEDSAIYYCASGGYYFDYWGQGTTLTVSS VL: DIVMTQSHKFMSTSFGDRVSITCKASQDVGTAVAWYQQKLGQSPKLLISWAFTRHTGVPDRFTGSGSGTDYTLTISSLQAEDLALYYCQQHYDTPFTFGSGTKLEIK	–	–	–	–	–	< 0.1 nM	5.61e-06 s⁻¹	–	–
anti-B7-H7 antibody 5B10 (antibody, V domains shown, Mouse hybridoma antibody) VH: EVQLQQSGPELEKPGASVKISCKASGYSFTGYNMNWVKQSNGKSLEWIGNIDPYSGGSTYNQKFKGKATLTVDKSSSTASLQLKSLTSEDSSVYYCARSFYDAPYLTYWGQGTLVTVSA VL: DIQMTQSPTSLSASVGETVTITCRASENIFIYLAWYQQKQGKSPQLLVFNAKTLAEGVPSRFSGSGSGTQFSLKINSLRPEDFGTYYCQHHYGTPPTFGGGTKLEV	4 nM	82 MFI	93 MFI	3.4 nM	2.4 nM	–	–	1.6 nM	148%
anti-B7-H7 antibody 1D3 (antibody, V domains shown, Mouse hybridoma antibody) VH: EVQLQQSGPELEKPGASVKISCKASGYSFTGYNMNWVKESNGRSLEWIGNIDPYSGGSTYNQKFKGKATMTVDKSSSTAYMQLKSLTSEDSAVYYCARSVYDAPWLAHWGQGTLVTVSA VL: DIQMTQSPASLSASVGETVTITCRASENIYIYLAWYQQKQGKSPQLLVYNAKTLAEGVPSRFSGSGSGTQFSLKINRLQPEDFGNYYCQHHYGTPPTFGGGTKLEIK	0.9 nM	247 MFI	214 MFI	8 nM	5 nM	–	–	1.2 nM	136%

Now from value to binder, other results behind:

Kd [1]	MFI [2]	MFI [3]	IC50 [4]	IC50 [5]	Kd [7]	koff [7]	Binder	Induction of NK-92 cytotoxicity EC50 [6]	Induction of NK-92 cytotoxicity Relative efficacy [6]
0.2 nM	165 MFI	199 MFI	2 nM	1.7 nM	–	–	anti-B7-H7 antibody 16D5 (antibody, V domains shown, Mouse hybridoma antibody) VH: QVQLQQSAAELARPGASVKMSCKASGYTFTTYTMHWVKQRPGQGLEWIGYINPSRGYSDYSQKFQGKSTLTTDKSSNTAYIQLTSLTSEDSAVYFCARGGYDFDYWGQGTTLTVSS VL: DIVMTQSHKFMSTSVGDRVSITCKASQDVGTAVAWYQQKPGQSPKLLLYWASTRHTGVPDRFTGSGSGTDYTLTISSVQAEDLALYHCQQHFITPYTFGGGTKLEIK	0.5 nM	135%
0.6 nM	163 MFI	195 MFI	1.8 nM	1.6 nM	–	–	anti-B7-H7 antibody 5F7 (antibody, V domains shown, Mouse hybridoma antibody) VH: QEQLQQPGTELVKPGASVKISCKASGYTFSSYSMHWVKLTPGQGLEWMGTIYPGNENTSYNQKFKGKATLTADKSSSTAYMQLSSLTSEDSAVYYCARGGYYFDYWGQGTTLTVSS VL: DIVMTQSHKFLSTSVGDRVSITCKASQDVSTAVAWYQQKPGQSPKLLIYWASTRHTGVSDRFTGSGSGTDFTLTISSVQAEDLALYYCQQHFDIPYWFGGGTKLEIK	0.6 nM	151%
–	–	–	–	–	< 0.1 nM	1.01e-05 s⁻¹	humanized anti-B7-H7 antibody Hz2D7 (antibody, human IgG1, kappa, V domains shown) VH: QVQLVQSGAEVKKPGASVKVSCKTSGYTFTEYTMHWVRQAPGQGLEWMGGINPNNYGAPYNQKFKGRVTMTVDTSISTAYMELSRLRSDDTAVYYCASGGYYFDYWGQGTLVTVSS VL: DIQMTQSPSSLSASVGDRVTITCKASQDVGTAVAWYQQKPGKAPKLLIYWAFTRHTGVPSRFSGSGSGTDYTLTISSLQPEDFATYYCQQHYDTPFTFGQGTKVEIKR	–	–
0.4 nM	152 MFI	165 MFI	2.7 nM	2.6 nM	–	–	anti-B7-H7 antibody 28F5 (antibody, V domains shown, Mouse hybridoma antibody) VH: QVQLKESGPGLVAPSQSLSITCTVSGFSLTGYGVNWVRQPPGKGLEWLGVIWGDGSTDYNSVLKSRLSISKDNSKSQVFLKMNSLQTDDTARYYCAREATEYLYWYFDVWGAGTTVTVSS VL: DIVLTQSPASLAVSLGQRATISCRASESVEYYGSSLMQWYQQKPGQPPKLLIFAASNVESGVPPRFSGSGSGTDFNLNIHPVDEDDIAMYFCQQGRRVPWTFGGGTKLEIK	0.5 nM	150%
0.8 nM	185 MFI	176 MFI	3.4 nM	3 nM	–	–	anti-B7-H7 antibody 5C9 (antibody, V domains shown, Mouse hybridoma antibody) VH: QVQLQQSGAELAKPGASVKMSCKASGYTFTSFWIHWIKQRPGQGLEWIGYIIPNTDYTEYNQKFKDKATFTADKSSSTAYMQLSSLTSEDSAVFYCARGLRGAYYFDYWGQGTTLTVSS VL: DIVLTQSPASLAVSLGLRATISCRSSQSVSTSTNGYMHWYQQKPGQPPKLLIMYASNLESGVPARFSGSGSGTDFTLNIHPVDEEDTATYYCQHSWVLPYTFGGGTKLEIK	1.6 nM	155%
